# Measured values reported in patent publication US7157616B2, “Method of selecting non-diabetogenic milk or milk products and milk or milk products so selected” (priority 1994, dated 2007).
# Where a chain is given by its changes, count along the chain named. Read-outs that look alike come from different tables or passages of the source. Marks after values point to notes of the source that are not given here. Ends that are not written are not given here.
# B1: bovine β-casein A1 hexapeptide Pro-63 to Asn-68 (Pro-Gly-Pro-Ile-His-Asn) (peptide)
# peptide: PGPIHN
# modifications: also: tritiated
# B2: bovine β-casein A2 hexapeptide Pro-63 to Asn-68 (peptide)
# peptide: PGPIPN
# modifications: also: tritiated
# B3: β-casein A1 variant: bovine β-casein A1 variant (SEQ ID NO: 2); casein made from milk of β-casein A1A1 phenotype cows (protein)
# chain: RELEELNVPGEIVESLSSSEESITRIDKKIEKFQSEEQQQTEDELQDKIHPFAQTQSLVYPFPGPIHNSLPQNIPPLTQTPVVVPPFLQPEVMGVSKVKEAMAPKHKEMPFPKYPVQPFTESQSLTLTDVENLHLPPLLLQSWMHQPHQPLPPTVMFPPQSVLSLSQSKVLPVPEKAVPYPQRDMPIQAFLLYQQPVLGPVRGPFPIIV
# B4: β-casein A2 variant: bovine β-casein A2 variant; casein made from milk of β-casein A2A2 phenotype cows (protein)
# chain: B3 chain with H67P
# Key:
# [1] = biological target: binding site on prediabetic human PB monocyte/macrophages (human); experiment: binding of tritiated hexapeptide to PB monocyte/macrophages
# [2] = biological target: binding site on normal human PB monocyte/macrophages (human); experiment: as above
# [3] = biological target: binding site on prediabetic human PB monocyte/macrophages (human); experiment: binding of tritiated hexapeptide to PB monocyte/macrophages; reference bovine A1 peptide
# [4] = biological target: binding site on normal human PB monocyte/macrophages (human); experiment: as above
# [5] = system: normal human macrophage; experiment: Binding of tritiated hexapeptides to normal PB monocyte/macrophages; details: for CPM bound: +Glucose, NaN3, Captopril, Benzylsuccinate, Elastatinal
# Excerpt: (§1) Using the method described by M'Hamiel Jaziri et al (1992) the human macrophage binding of the bovine peptides Pro-63 to Asn-68 (from the β-casein A1 and A2 variant sequences) were studied and compared with the binding of the peptide Val-54 Tyr-59 from human β-peptide to each of a normal human macrophage and a prediabetic human macrophage.
# [6] = system: prediabetic human macrophage; experiment: Binding of tritiated hexapeptides to prediabetic PB monocyte/macrophages; details: for CPM bound: +Glucose, NaN3, Captopril, Benzylsuccinate, Elastatinal
# Excerpt: as §1
# [7] = system: murine macrophages; details: cited from earlier work
# [8] = system: human macrophage; details: cited from earlier work
# [9] = system: NOD mice; experiment: Diabetes incidence in NOD mice fed β-casein A1/A2 variants, whey or Bos indicus casein as 10% additions to Prosobee; type: in vivo, mouse; details: for Number of Animals Developing Diabetes by 250 days / Percentage of animals developing diabetes by 250 days: 10% addition to Prosobee infant formula from weaning
# Excerpt: Similar groups of mice were fed a diet of the soy infant formula Prosobee™ and 10% W/W of: […]
# d) Bos indicus casein, or
# e) a 50/50 mixture of β-casein A1 variant/A2 variant.
# The β-casein A1 variant precipitated diabetes in […] cases, the A2 variants in no cases and the A1/A2 mixture in 4 of 20 cases. The result mid-way between the […] results is consistent with there being no interaction between A1 and A2.
# Lactic casein was manufactured in the New Zealand Dairy Research Institute Pilot Plant from the β-casein A1A1 and A2A2 phenotype bulk milks using methods essentially identical to those used in a standard New Zealand commercial lactic casein manufacturing dairy factory (see Muller, 1986). These caseins together with other constituents were then used in the feeding trials as described in Examples 2 and 3.
molecule,measurement,setting,value
peptide Val-54 to Tyr-59 from human β-casein (from UniProt P05814 69-74),CPM,[1],1400 CPM
same,CPM,[2],2750 CPM
same,Ratio */** (human CPM to bovine A1 CPM),[3],0.31
same,Ratio */** (human CPM to bovine A1 CPM),[4],1.2
Bovine A2: tritiated bovine hexapeptide Pro-63 to Asn-68 from the β-casein A2 variant sequence (proline at position 67) (PGPIPN; also: tritiated),CPM bound,[5]; NORMAL PBM (N = 3),2900 CPM
same,CPM bound,[6]; PREDIABETIC PBM (N = 3),2750 CPM
Pro-Gly-Pro-Ile-His-Asn (PGPIHN; also: tritium label) [Bovine A1],CPM bound,[5]; NORMAL PBM (N = 3),2220** CPM
same,binding to normal human macrophages,[5],bind specifically
same,CPM bound,[6]; PREDIABETIC PBM (N = 3),4500** CPM
same,binding to prediabetic macrophages,[6],bind specifically
same,phagocytic activity of murine macrophages,[7],stimulate the phagocytic activity
Human – tritiated hexapeptide Val-54 to Tyr-59 from human β-casein (VEPIPY; also: tritiated) [reference compound],Ratio */** (Human / Bovine A1 CPM),[5]; NORMAL PBM (N = 3),1.2
same,CPM bound,[5]; NORMAL PBM (N = 3),2750* CPM
same,binding to normal human macrophages,[5],bind specifically
same,binding site on the human macrophage,[8],specific binding site
same,Ratio */** (Human / Bovine A1 CPM),[6]; PREDIABETIC PBM (N = 3),0.31
same,CPM bound,[6]; PREDIABETIC PBM (N = 3),1400* CPM
same,binding to prediabetic macrophages,[6],bind specifically
B1,CPM,[1],4500 CPM
same,CPM,[2],2220 CPM
B2,CPM,[1],2750 CPM
same,CPM,[2],2900 CPM
B3,diabetogenic activity (words),[9],diabetogenic
same,Number of Animals Developing Diabetes by 250 days,[9],9
same,Percentage of animals developing diabetes by 250 days,[9],45%
same,diabetogenic activity (words),[9]; listed as A1 variant,does have diabetogenic activity
B4,diabetogenic activity (words),[9],is not
same,Number of Animals Developing Diabetes by 250 days,[9],0
same,Percentage of animals developing diabetes by 250 days,[9],0%
same,Number of Animals Developing Diabetes by 250 days,[9]; listed as A2 variants,no cases
same,diabetogenic activity (words),[9]; listed as A2 variant,do not show diabetogenic activity
